For 2 substances, fold decrease in fold change of the off-rate with palbociclib against DMSO and dissociation t-half results are on record in PMC8184839.

The target in assay [1] is cyclin D1 with the CDK6n-CDK4c chimera (UniProt P24385). The assay is described as follows: recruitment to a CDK tethered at the inner nuclear membrane, with FRAP; as a4 but with 6 µM palbociclib overnight and throughout, or 6 µM palbociclib, ribociclib or abemaciclib added acutely about 4-5 min after photobleaching.
In assay [2] the target is CDK2-mTurquoise-Δ50 lamin A (UniProt P24941). The assay is described as follows: recruitment to a CDK tethered at the inner nuclear membrane, with FRAP; live RPE-1 cells with mVenus-cyclin and CDK-mTurquoise-Δ50 lamin A, p21 and p27 depleted by siRNA co-knockdown; recovery of mVenus after photobleaching; 37 °C.

Sequence of cyclin D1 with the CDK6n-CDK4c chimera (P24385 whole entry, looked up, stated change not applied): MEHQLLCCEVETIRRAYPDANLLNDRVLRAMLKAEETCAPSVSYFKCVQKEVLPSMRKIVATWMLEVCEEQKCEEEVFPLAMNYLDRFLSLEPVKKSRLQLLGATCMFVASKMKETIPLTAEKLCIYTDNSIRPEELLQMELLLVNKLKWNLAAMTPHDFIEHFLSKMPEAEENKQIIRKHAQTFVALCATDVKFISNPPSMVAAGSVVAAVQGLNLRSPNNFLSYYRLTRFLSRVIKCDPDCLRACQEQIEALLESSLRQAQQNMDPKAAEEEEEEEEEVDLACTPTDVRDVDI
Sequence of mVenus-cyclin E1 (P24864 whole entry): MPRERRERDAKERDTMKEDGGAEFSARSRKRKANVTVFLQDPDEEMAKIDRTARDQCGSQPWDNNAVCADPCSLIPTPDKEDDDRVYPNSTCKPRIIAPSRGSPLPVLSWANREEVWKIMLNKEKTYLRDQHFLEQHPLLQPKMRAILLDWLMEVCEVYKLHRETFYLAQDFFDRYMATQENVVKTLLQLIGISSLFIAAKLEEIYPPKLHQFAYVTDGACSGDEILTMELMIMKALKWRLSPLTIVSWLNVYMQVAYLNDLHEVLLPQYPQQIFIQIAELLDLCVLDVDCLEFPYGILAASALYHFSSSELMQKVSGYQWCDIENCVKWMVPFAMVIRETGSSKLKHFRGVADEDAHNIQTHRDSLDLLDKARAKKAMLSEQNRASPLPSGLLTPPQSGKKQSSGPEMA
Sequence of mRuby3-p21 (P38936 whole entry): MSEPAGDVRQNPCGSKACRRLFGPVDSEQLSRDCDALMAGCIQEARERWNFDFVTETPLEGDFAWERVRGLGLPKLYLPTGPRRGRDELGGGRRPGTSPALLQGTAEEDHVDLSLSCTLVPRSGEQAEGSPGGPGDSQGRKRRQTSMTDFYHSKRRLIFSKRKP

For “mRuby3-p21 (from UniProt P38936 1-164) (natural protein)”, the fold decrease in fold change of the off-rate with palbociclib against DMSO in assay [1] is 10 fold.

The substance “mVenus-cyclin E1 (from UniProt P24864 1-410) (natural protein; other documents disagree on this pair)” displayed a dissociation t-half in assay [2] of 3 min.
